Here are results for 6 substances from patent publication EP2216341A1, “Transferrin variants and conjugates” (Novozymes Biopharma UK Limited, priority 2009, dated 2010).

The target in this test is transferrin receptors on human K562 erythroleukemic cells. Briefly: cell-based or functional assay.
In turn, “Fluorescein conjugated thiotransferrin (S28C, S415A, T613A) (ligand)” displayed a Specific iron uptake Bmax (fmol 55Fe/10^6 cells x 25min) of 2430, a Specific iron uptake Kd (nM transferrin) of 154 nM and a Total Iron Uptake Bmax (fmol 55Fe/10^6 cells x 25min) of 3290.
“Fluorescein conjugated thiotransferrin (S415C, T613A) (ligand)” came in with a Specific iron uptake Bmax (fmol 55Fe/10^6 cells x 25min) of 3250, a Specific iron uptake Kd (nM transferrin) of 189 nM and a Total Iron Uptake Bmax (fmol 55Fe/10^6 cells x 25min) of 4160.
As for “Human plasma-derived apo-transferrin (Calbiochem 616419) (from UniProt P02787 20-698) (ligand)”, the Total Iron Uptake Bmax (fmol 55Fe/10^6 cells x 25min) was found to be 4250.
“recombinant thiotransferrin (S28C, S415A, T613A) (ligand)” registered a Specific iron uptake Bmax (fmol 55Fe/10^6 cells x 25min) of 3020, a Specific iron uptake Kd (nM transferrin) of 209 nM and a Total Iron Uptake Bmax (fmol 55Fe/10^6 cells x 25min) of 4210.
Substance “recombinant thiotransferrin (S415C, T613A) (ligand)” showed a Specific iron uptake Bmax (fmol 55Fe/10^6 cells x 25min) of 2360, a Specific iron uptake Kd (nM transferrin) of 203 nM and a Total Iron Uptake Bmax (fmol 55Fe/10^6 cells x 25min) of 3690.
The matching figures for “recombinant transferrin (S415A, T613A) (ligand)”: 2830, 130 nM and 4050.
